Target: T1, human recombinant RIPK3 (human, UniProt Q9Y572 1-518)
T1 construct: RIPK3, human, bought recombinant protein; also called rhRIPK3; source: bought: Mybiosource cod; MBS1442585
Assay: BLI; rhRIPK3 immobilised on AR2G sensor (10 μg/mL in 10 mM NaAc pH 4.5); rhGADD45β as analyte, 3.1–100 nM; 25 mM Tris pH 7.5, 100 mM NaCl, 0.02% Tween 20, 0.1% BSA; 25 °C; 1:1 Langmuir model; apparent
Details: both partners purified

T1 sequence (Q9Y572 whole entry): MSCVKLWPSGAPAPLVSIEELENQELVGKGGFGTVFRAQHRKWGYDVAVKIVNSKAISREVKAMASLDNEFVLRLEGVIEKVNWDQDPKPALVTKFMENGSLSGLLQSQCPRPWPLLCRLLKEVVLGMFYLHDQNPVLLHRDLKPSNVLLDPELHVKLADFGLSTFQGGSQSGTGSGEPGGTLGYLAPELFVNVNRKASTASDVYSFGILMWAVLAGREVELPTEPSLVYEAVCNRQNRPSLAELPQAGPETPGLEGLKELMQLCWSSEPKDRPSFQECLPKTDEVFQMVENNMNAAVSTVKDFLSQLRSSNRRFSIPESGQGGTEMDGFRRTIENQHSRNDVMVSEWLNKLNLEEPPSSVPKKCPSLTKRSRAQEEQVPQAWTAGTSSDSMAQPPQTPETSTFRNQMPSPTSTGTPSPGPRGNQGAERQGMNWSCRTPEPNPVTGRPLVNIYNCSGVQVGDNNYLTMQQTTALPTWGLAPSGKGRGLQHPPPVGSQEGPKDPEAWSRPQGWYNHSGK

B1: recombinant human GADD45β (natural protein, UniProt O75293 1-160, looked up)
chain: MTLEELVACDNAAQKMQTVTAAVEELLVAAQRQDRLTVGVYESAKLMNVDPDSVVLCLLAIDEEEEDDIALQIHFTLIQSFCCDNDINIVRVSGMQRLAQLLGEPAETQGTTEARDLHCLLVTNPHTDAWKSHGLVEVASYCEESRGNNQWVPYISLQER
notes: GADD45β, human, recombinant; also called rhGADD45β; Growth Arrest and DNA Damage-inducible beta
Binder B1 has a Kd of 1.73 nM.

Source: paper PMC12827253, “GADD45β inhibits RIPK3-mediated NF-κB activation by interfering with NEMO-RIPK1-RIPK3 interactions” (Cell Death Discovery, 2025)
